Experimental data from patent publication US20090317415A1 (UNIVERSITY COLLEGE CARDIFF CONSULTANTS, published 2009).

Target: T1, HLA-A*0201 expressed on T2 cells (human)
T1 construct: also called HLA-A2
Test: cell-based peptide binding assay on T2 cells

B1: Rb485-493 (Rb7) peptide (peptide)
peptide: SLLACALEV
notes: also called Rb peptide
binding result: binds
